# Target: human EPOR on cells (293T/EPOR cells; UT-7 cells) (human) (UniProt P19235)
# Assay: cell-based or functional assay
# Sequence of human EPOR on cells (293T/EPOR cells; UT-7 cells) (human) (P19235 25-508): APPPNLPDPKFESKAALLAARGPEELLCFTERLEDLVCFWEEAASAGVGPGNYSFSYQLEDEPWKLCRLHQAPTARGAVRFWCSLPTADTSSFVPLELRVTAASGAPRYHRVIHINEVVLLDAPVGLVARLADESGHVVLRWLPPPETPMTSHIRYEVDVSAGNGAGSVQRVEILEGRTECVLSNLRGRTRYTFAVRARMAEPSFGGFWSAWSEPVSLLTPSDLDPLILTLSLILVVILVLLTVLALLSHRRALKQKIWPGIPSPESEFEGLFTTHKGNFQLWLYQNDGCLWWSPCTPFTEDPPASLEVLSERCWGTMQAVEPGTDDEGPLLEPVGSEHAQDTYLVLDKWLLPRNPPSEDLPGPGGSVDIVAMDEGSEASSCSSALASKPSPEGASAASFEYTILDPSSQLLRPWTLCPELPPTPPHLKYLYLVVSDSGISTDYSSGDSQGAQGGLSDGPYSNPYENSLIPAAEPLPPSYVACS
row,Substance,"EPO-mediated Stat5 Phosphorylation in 293T/EPOR, Elisa [%]"
1,"IME047 (EPO-HSA, K140A/K152A) (from UniProt P01588 28-193)",23
2,"IME031 (HSA-HBSP, helix B surface peptide fused to albumin)",0
3,"IME012 (EPO-Fc, E62R) (from UniProt P01588 28-193) (Fc fusion)",4
4,"IME009 (EPO-Fc, K45D/R103A) (from UniProt P01588 28-193) (Fc fusion)",13
5,"IME030 (HSA-HBP, helix B peptide fused to albumin)",0
6,"IME032 (EPO-Fc, E62A) (from UniProt P01588 28-193) (Fc fusion)",2
7,"IME039 (EPO-Fc, L80A) (from UniProt P01588 28-193) (Fc fusion)",32
8,"IME014 (EPO-Fc, E72R) (from UniProt P01588 28-193) (Fc fusion)",82
9,"IME006 (EPO-Fc, N147K) (from UniProt P01588 28-193) (Fc fusion)",37
10,"IME008 (EPO-Fc, R103A) (from UniProt P01588 28-193) (Fc fusion)",30
11,"IME037 (EPO-Fc, Q58A) (from UniProt P01588 28-193) (Fc fusion)",71
12,"IME043 (EPO-HSA, R103A) (from UniProt P01588 28-193)",0
13,"IME005 (EPO-Fc, K45D) (from UniProt P01588 28-193) (Fc fusion)",86
14,"IME007 (EPO-Fc, R150E) (from UniProt P01588 28-193) (Fc fusion)",27
15,"IME015 (EPO-Fc, R76E) (from UniProt P01588 28-193) (Fc fusion)",27
16,"IME011 (EPO-Fc, R150E/R103A) (from UniProt P01588 28-193) (Fc fusion)",5
17,"IME010 (EPO-Fc, N147K/R103A) (from UniProt P01588 28-193) (Fc fusion)",5
18,"IME034 (EPO-Fc, R76A) (from UniProt P01588 28-193) (Fc fusion)",5
19,"IME038 (EPO-Fc, L69A) (from UniProt P01588 28-193) (Fc fusion)",57
20,"IME045 (EPO-HSA, Q65A/E72R/N83A) (from UniProt P01588 28-193)",105
21,"IME049 (EPO-HSA, K20A/K45A/K52A/K140A/K152A/K154A) (from UniProt P01588 28-193)",15
22,"IME033 (EPO-Fc, E72A) (from UniProt P01588 28-193) (Fc fusion)",75
23,"IME013 (EPO-Fc, Q65A) (from UniProt P01588 28-193) (Fc fusion)",100
24,"IME048 (EPO-HSA, K140A/K152A/K154A) (from UniProt P01588 28-193)",11
25,"IME044 (EPO-HSA, Q65A/E72R) (from UniProt P01588 28-193)",94
26,"IME046 (EPO-HSA, K20A/K45A/K52A) (from UniProt P01588 28-193)",90

# Source: patent publication US20250129170A1
